From the supplement of paper PMC9112550, “Optimization of the antimicrobial peptide Bac7 by deep mutational scanning” (BMC Biology, 2022)

Test system: Escherichia coli TOP10
Assay: shrunken log2 fold change of peptide-encoding DNA abundance (4.5 h post-induction vs induction); higher = less antimicrobial activity (less host growth inhibition)
Details: time post-induction: 4.5 h; library: site-saturation at positions 5, 18, 19, 20
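Further: peptides expressed intracellularly from a pBAD plasmid library in pooled LB shake-flask culture, induced with 0.3% L-arabinose, DNA abundance read by NGS, three biological replicates, DESeq2 with apeglm shrinkage.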

Sequence: RRIRFRPPRLPRPRPRPWDRPRP
- shrunken log2 fold change: -0.167

Sequence: RRIRGRPPRLPRPRPRPYSWPRP
- shrunken log2 fold change: 0.187

Sequence: RRIRLRPPRLPRPRPRPDMSPRP
- shrunken log2 fold change: -0.428

Sequence: RRIRARPPRLPRPRPRPNSSPRP
- shrunken log2 fold change: 0.184

Sequence: RRIRMRPPRLPRPRPRPYYEPRP
- shrunken log2 fold change: -0.28

Sequence: RRIRERPPRLPRPRPRPPMQPRP
- shrunken log2 fold change: 0.225

Sequence: RRIRSRPPRLPRPRPRPDVCPRP
- shrunken log2 fold change: 0.0421

Sequence: RRIRMRPPRLPRPRPRPKPVPRP
- shrunken log2 fold change: 0.895

Sequence: RRIRPRPPRLPRPRPRPGVHPRP
- shrunken log2 fold change: -0.0724

Sequence: RRIRFRPPRLPRPRPRPSTLPRP
- shrunken log2 fold change: -0.757

Sequence: RRIRARPPRLPRPRPRPTWMPRP
- shrunken log2 fold change: 0.221

Sequence: RRIRFRPPRLPRPRPRPSCEPRP
- shrunken log2 fold change: -0.619

Sequence: RRIRYRPPRLPRPRPRPAVWPRP
- shrunken log2 fold change: 0.11

Sequence: RRIRHRPPRLPRPRPRPCFEPRP
- shrunken log2 fold change: -0.114

Sequence: RRIRYRPPRLPRPRPRPHRIPRP
- shrunken log2 fold change: -0.474

Sequence: RRIRARPPRLPRPRPRPQHSPRP
- shrunken log2 fold change: 0.283

Sequence: RRIRKRPPRLPRPRPRPTTHPRP
- shrunken log2 fold change: 0.495

Sequence: RRIRMRPPRLPRPRPRPRTNPRP
- shrunken log2 fold change: 0.295

Sequence: RRIRCRPPRLPRPRPRPPPWPRP
- shrunken log2 fold change: 1.06

Sequence: RRIRTRPPRLPRPRPRPWIGPRP
- shrunken log2 fold change: -0.233

Sequence: RRIRQRPPRLPRPRPRPTDDPRP
- shrunken log2 fold change: -0.0703

Sequence: RRIRTRPPRLPRPRPRPDCVPRP
- shrunken log2 fold change: -0.128

Sequence: RRIRFRPPRLPRPRPRPRVDPRP
- shrunken log2 fold change: -0.055

Sequence: RRIRQRPPRLPRPRPRPDMNPRP
- shrunken log2 fold change: -0.654

Sequence: RRIRFRPPRLPRPRPRPYHNPRP
- shrunken log2 fold change: -0.882

Sequence: RRIRHRPPRLPRPRPRPLKSPRP
- shrunken log2 fold change: -0.178

Sequence: RRIRLRPPRLPRPRPRPGFDPRP
- shrunken log2 fold change: 0.137

Sequence: RRIRPRPPRLPRPRPRPWTEPRP
- shrunken log2 fold change: -0.204

Sequence: RRIRHRPPRLPRPRPRPDYTPRP
- shrunken log2 fold change: -0.00281

Sequence: RRIRWRPPRLPRPRPRPSNLPRP
- shrunken log2 fold change: -0.0676

Sequence: RRIRMRPPRLPRPRPRPPNKPRP
- shrunken log2 fold change: 0.604

Sequence: RRIRCRPPRLPRPRPRPIFQPRP
- shrunken log2 fold change: -0.0452

Sequence: RRIRLRPPRLPRPRPRPIKFPRP
- shrunken log2 fold change: -0.0676

Sequence: RRIRSRPPRLPRPRPRPMNFPRP
- shrunken log2 fold change: -0.0407

Sequence: RRIRDRPPRLPRPRPRPWSYPRP
- shrunken log2 fold change: -1.29

Sequence: RRIRLRPPRLPRPRPRPPWQPRP
- shrunken log2 fold change: 0.594

Sequence: RRIRRRPPRLPRPRPRPQGLPRP
- shrunken log2 fold change: 0.143

Sequence: RRIRYRPPRLPRPRPRPGDEPRP
- shrunken log2 fold change: -0.0823

Sequence: RRIRCRPPRLPRPRPRPFVDPRP
- shrunken log2 fold change: -0.307

Sequence: RRIRNRPPRLPRPRPRPTRCPRP
- shrunken log2 fold change: 0.15

Sequence: RRIRSRPPRLPRPRPRPNKMPRP
- shrunken log2 fold change: -0.05

Sequence: RRIRRRPPRLPRPRPRPSACPRP
- shrunken log2 fold change: 0.195

Sequence: RRIRDRPPRLPRPRPRPYRYPRP
- shrunken log2 fold change: -0.0188

Sequence: RRIRRRPPRLPRPRPRPNWIPRP
- shrunken log2 fold change: 0.259

Sequence: RRIRARPPRLPRPRPRPGIWPRP
- shrunken log2 fold change: 0.168

Sequence: RRIRVRPPRLPRPRPRPVVMPRP
- shrunken log2 fold change: -0.271

Sequence: RRIRTRPPRLPRPRPRPDIEPRP
- shrunken log2 fold change: -0.117

Sequence: RRIRFRPPRLPRPRPRPKGVPRP
- shrunken log2 fold change: 0.0142

Sequence: RRIRVRPPRLPRPRPRPVHKPRP
- shrunken log2 fold change: 0.129

Sequence: RRIRWRPPRLPRPRPRPVSYPRP
- shrunken log2 fold change: -0.131

Sequence: RRIRNRPPRLPRPRPRPHHAPRP
- shrunken log2 fold change: -0.0601

Sequence: RRIRTRPPRLPRPRPRPFKEPRP
- shrunken log2 fold change: -0.125

Sequence: RRIRDRPPRLPRPRPRPWCCPRP
- shrunken log2 fold change: 0.0175

Sequence: RRIRDRPPRLPRPRPRPLVIPRP
- shrunken log2 fold change: -0.0438

Sequence: RRIRWRPPRLPRPRPRPNEGPRP
- shrunken log2 fold change: -0.0387

Sequence: RRIRSRPPRLPRPRPRPMWMPRP
- shrunken log2 fold change: -0.344

Sequence: RRIRSRPPRLPRPRPRPFYQPRP
- shrunken log2 fold change: -0.308

Sequence: RRIRMRPPRLPRPRPRPAECPRP
- shrunken log2 fold change: 0.042

Sequence: RRIRHRPPRLPRPRPRPEYLPRP
- shrunken log2 fold change: 0.0871

Sequence: RRIRCRPPRLPRPRPRPTHTPRP
- shrunken log2 fold change: 0.388

Sequence: RRIRHRPPRLPRPRPRPDVMPRP
- shrunken log2 fold change: -0.374

Sequence: RRIRDRPPRLPRPRPRPGTEPRP
- shrunken log2 fold change: 0.974

Sequence: RRIRDRPPRLPRPRPRPSCPPRP
- shrunken log2 fold change: 0.00741

Sequence: RRIRDRPPRLPRPRPRPAGTPRP
- shrunken log2 fold change: 0.207

Sequence: RRIRWRPPRLPRPRPRPHETPRP
- shrunken log2 fold change: 0.126

Sequence: RRIRARPPRLPRPRPRPTCIPRP
- shrunken log2 fold change: 0.331

Sequence: RRIRNRPPRLPRPRPRPKDEPRP
- shrunken log2 fold change: 0.536

Sequence: RRIRWRPPRLPRPRPRPHGCPRP
- shrunken log2 fold change: 0.0126

Sequence: RRIRYRPPRLPRPRPRPCCYPRP
- shrunken log2 fold change: -0.363

Sequence: RRIRKRPPRLPRPRPRPKREPRP
- shrunken log2 fold change: 0.393

Sequence: RRIRMRPPRLPRPRPRPKKRPRP
- shrunken log2 fold change: 2.01

Sequence: RRIRTRPPRLPRPRPRPWRGPRP
- shrunken log2 fold change: 0.123

Sequence: RRIRTRPPRLPRPRPRPDANPRP
- shrunken log2 fold change: -0.103

Sequence: RRIRKRPPRLPRPRPRPQNRPRP
- shrunken log2 fold change: -0.169

Sequence: RRIRARPPRLPRPRPRPMAAPRP
- shrunken log2 fold change: 3.13

Sequence: RRIRYRPPRLPRPRPRPTDYPRP
- shrunken log2 fold change: -0.746

Sequence: RRIRGRPPRLPRPRPRPGQGPRP
- shrunken log2 fold change: 0.0965

Sequence: RRIRHRPPRLPRPRPRPPAWPRP
- shrunken log2 fold change: 0.0414

Sequence: RRIRKRPPRLPRPRPRPEYNPRP
- shrunken log2 fold change: 0.196

Sequence: RRIRMRPPRLPRPRPRPSIFPRP
- shrunken log2 fold change: 0.00177

Sequence: RRIRWRPPRLPRPRPRPFRRPRP
- shrunken log2 fold change: -0.134

Sequence: RRIRARPPRLPRPRPRPISWPRP
- shrunken log2 fold change: 0.508

Sequence: RRIRNRPPRLPRPRPRPILSPRP
- shrunken log2 fold change: -0.00144

Sequence: RRIRKRPPRLPRPRPRPLEVPRP
- shrunken log2 fold change: 0.0569

Sequence: RRIRNRPPRLPRPRPRPAWHPRP
- shrunken log2 fold change: 0.259

Sequence: RRIRFRPPRLPRPRPRPPQKPRP
- shrunken log2 fold change: 0.719

Sequence: RRIRNRPPRLPRPRPRPHRNPRP
- shrunken log2 fold change: -0.176

Sequence: RRIRFRPPRLPRPRPRPIWAPRP
- shrunken log2 fold change: 0.0219

Sequence: RRIRIRPPRLPRPRPRPDCCPRP
- shrunken log2 fold change: 0.000204

Sequence: RRIRTRPPRLPRPRPRPCLTPRP
- shrunken log2 fold change: -0.319

Sequence: RRIRIRPPRLPRPRPRPAKFPRP
- shrunken log2 fold change: -0.158

Sequence: RRIRRRPPRLPRPRPRPVQYPRP
- shrunken log2 fold change: -0.00909

Sequence: RRIRDRPPRLPRPRPRPHKLPRP
- shrunken log2 fold change: 0.00695

Sequence: RRIRRRPPRLPRPRPRPLPTPRP
- shrunken log2 fold change: 0.729

Sequence: RRIRKRPPRLPRPRPRPMSAPRP
- shrunken log2 fold change: 0.0584

Sequence: RRIRGRPPRLPRPRPRPQPAPRP
- shrunken log2 fold change: 0.833

Sequence: RRIRKRPPRLPRPRPRPPGEPRP
- shrunken log2 fold change: 0.617

Sequence: RRIRTRPPRLPRPRPRPCRCPRP
- shrunken log2 fold change: -0.00986

Sequence: RRIRPRPPRLPRPRPRPHPTPRP
- shrunken log2 fold change: 0.17

Sequence: RRIRVRPPRLPRPRPRPQMVPRP
- shrunken log2 fold change: 0.0123

Sequence: RRIRERPPRLPRPRPRPRYIPRP
- shrunken log2 fold change: -0.208

Sequence: RRIRGRPPRLPRPRPRPRVMPRP
- shrunken log2 fold change: 0.473

Sequence: RRIRLRPPRLPRPRPRPRHLPRP
- shrunken log2 fold change: -0.818

Sequence: RRIRDRPPRLPRPRPRPWFHPRP
- shrunken log2 fold change: -0.00884

Sequence: RRIRSRPPRLPRPRPRPYHMPRP
- shrunken log2 fold change: -1.26

Sequence: RRIRRRPPRLPRPRPRPPDYPRP
- shrunken log2 fold change: 0.244

Sequence: RRIRRRPPRLPRPRPRPMGEPRP
- shrunken log2 fold change: 0.0186

Sequence: RRIRHRPPRLPRPRPRPNNHPRP
- shrunken log2 fold change: -0.915

Sequence: RRIRRRPPRLPRPRPRPSMDPRP
- shrunken log2 fold change: 0.0821
